Values quoted from earlier work in paper PMC12291208.

What was measured:
[1] = target: Lys92 (UniProt position 174, RGLAYKYADGK); settings: folded protein; Lys92 buried, Lys118 solvent exposed
[2] = target: Lys118 (UniProt position 200, YVYKPKNTHEQ); settings: folded protein; Lys92 buried, Lys118 solvent exposed

Row | Substance | pKa [1] | pKa [2]
1 | Staphylococcal nuclease (SNase) I92K variant (Staphylococcus aureus (inferred from 'staphylococcal'); I92K) | 5.2 | 
2 | Staphylococcal nuclease (SNase) N118K variant (Staphylococcus aureus (inferred from 'staphylococcal'); N118K) |  | 10.4
